According to US5567602A, “Recombinant production of chymase” (Arris Pharmaceutical Corporation, priority 1992, dated 1996):
Like-named read-outs stand apart in the source and are kept apart here.

Tests used:
human heart chymase = conditions: none = 100, cited from earlier work
[1] = molecular target: T1, recombinant human chymase (Homo sapiens, UniProt P23946); assay: Inhibitor profile of recombinant human chymase (residual activity, chromogenic substrate); type: biochemical; conditions: none = 100
T1 construct: made in house; host or cells: Escherichia coli (XL1-Blue)
T1 sequence (P23946 22-247): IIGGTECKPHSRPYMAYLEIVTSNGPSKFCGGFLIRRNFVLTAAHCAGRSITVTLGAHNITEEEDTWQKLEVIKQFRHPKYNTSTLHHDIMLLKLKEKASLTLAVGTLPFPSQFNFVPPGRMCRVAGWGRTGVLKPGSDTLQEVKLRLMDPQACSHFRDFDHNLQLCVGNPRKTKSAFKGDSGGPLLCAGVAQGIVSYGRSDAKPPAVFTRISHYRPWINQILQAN
Method: (§1) Assays for chymase activity were carried out in cuvettes, which contained, in 1 ml, 80 μg of the chromogenic substrate succinyl-L-PheProPhe-p-nitroanilide in 30 mM Tris-HCl, pH 8.0, 1M NaCl. Samples were placed in a spectrophotometer and set to zero absorbance. The assay was initiated by mixing in approximately 10 μg of protein and absorbance at 405 nm was monitored as a function of time. Chymase activity was determined from the specific activity (110 absorbance units/mg/min at 37° C.; Caughey et al., 1988, Bioch. Biophys. Acta 952:142-149) and the slope of the absorbance vs. time plot.
(§2) MBP-chymase fusion protein, recovered in the insoluble fraction from cell extracts, was resuspended in lysis buffer containing β-mercaptoethanol and 8M urea. After sonication to completely resuspend the pellet, the sample was dialyzed against 10 mM sodium phosphate buffer, pH 7.2 overnight. Insoluble material was removed by centrifugation and the fusion protein was then purified by amylose affinity chromatography as above. The fusion protein was eluted from the resin with maltose and dialyzed against 20 mM Tris-HCl, pH 8.0, 100 mM NaCl. The protein was then exchanged into reducing buffer #1 (0.1M Tris-HCl, pH 8.7, 1 mM EDTA, 6M guanidine-HCl, 0.15M NaCl, 0.3 M reduced glutathione) and incubated at room temperature for 2 hours. The sample was diluted 100-fold into oxidizing buffer #2 (0.1 Tris-HCl, pH 8.0, 1 mM EDTA, 0.15M NaCl, 0.3 mM oxidized glutathione), stirred for 2-48 hr at room temperature, and concentrated 100-fold to 285 μg/ml by ultrafiltration using an Amicon stirred flow cell. Factor Xa cleavage reactions were carried out at room temperature overnight. Ten μl samples were periodically removed and assayed for chymase activity in the presence or absence of various proteinase inhibitors. Several control experiments were also performed as described below.

Chymase = conditions: general statement, no concentration; cited from earlier work
[2] = test system: airway submucosal gland cells; conditions: cited from earlier work
[3] = at 37° C.; Caughey et al., 1988; cited from earlier work
[4] = Assay for chymase proteolytic activity on chromogenic substrate; type: biochemical; conditions: for proteolytic activity on chromogenic substrate: not refolded, chymase substrate succinyl-L-PheProPhe-p-nitroanilide; for activity released by Factor Xa: refolded fusion protein
Method: as §1, §2

Molecule: Cc1ccc(S(=O)(=O)N[C@@H](Cc2ccccc2)C(=O)CCl)cc1 [TPCK, ptosyl-L-phenylalanine chloromethyl ketone]
- % Residual Activity, Heart Chymase (human heart chymase; 1 mM inhibitor): 30%
- remaining activity at 100 µM ([1]; 100 μM inhibitor, read-out: % Residual Activity, Recombinant Enzyme): 0%

Molecule: CC(=O)N[C@@H](CC(C)C)C(=O)N[C@@H](CC(C)C)C(=O)N[C@H](C=O)CCCNC(=N)N [LEU, leupeptin]
- % Residual Activity, Heart Chymase (human heart chymase; 10 μM inhibitor): 106%
- remaining activity at 10 µM ([1]; 10 μM inhibitor, read-out: % Residual Activity, Recombinant Enzyme): 100%

Molecule: O=S(=O)(F)Cc1ccccc1 [PMSF, phenylmethylsulfonyl fluoride]
- % Residual Activity, Heart Chymase (human heart chymase; 1 mM inhibitor): 0%
- % Residual Activity, Recombinant Enzyme ([1]; 1 mM inhibitor): 0%

B1: SBTI: soybean trypsin inhibitor (protein)
chain: DFVLDNEGNPLENGGTYYILSDITAFGGIRAAPTGNERCPLTVVQSRNELDKGIGTIISSPYRIRFIAEGHPLSLKFDSFAVIMLCVGIPTEWSVVEDLPEGPAVKIGENKDAMDGWFRLERVSDDEFNNYKLVFCPQQAEDDKCGDIGISIDHDDGTRRLVVSKNKPLVVQFQKLDKESL
- inhibition of chymase (Chymase): inhibited
- % Residual Activity, Heart Chymase (human heart chymase; 1 μM inhibitor): 0%
- % Residual Activity, Heart Chymase (human heart chymase; 100 μM inhibitor): 0%
- % Residual Activity, Recombinant Enzyme ([1]; 25 μM inhibitor): 0%

B2: Chymase: serine protease with chymotrypsin-like substrate specificity of mast cells (protein)
chain: IIGGTECKPHSRPYMAYLEIVTSNGPSKFCGGFLIRRNFVLTAAHCAGRSITVTLGAHNITEEEDTWQKLEVIKQFRHPKYNTSTLHHDIMLLKLKEKASLTLAVGTLPFPSQFNFVPPGRMCRVAGWGRTGVLKPGSDTLQEVKLRLMDPQACSHFRDFDHNLQLCVGNPRKTKSAFKGDSGGPLLCAGVAQGIVSYGRSDAKPPAVFTRISHYRPWINQILQAN
- secretagogue activity [2]: extremely potent secretagogue
- specific activity [3]: 110 absorbance units/mg/min

B3: Free chymase: Free chymase, released by Factor Xa cleavage of the fusion protein (protein)
chain: IIGGTECKPHSRPYMAYLEIVTSNGPSKFCGGFLIRRNFVLTAAHCAGRSITVTLGAHNITEEEDTWQKLEVIKQFRHPKYNTSTLHHDIMLLKLKEKASLTLAVGTLPFPSQFNFVPPGRMCRVAGWGRTGVLKPGSDTLQEVKLRLMDPQACSHFRDFDHNLQLCVGNPRKTKSAFKGDSGGPLLCAGVAQGIVSYGRSDAKPPAVFTRISHYRPWINQILQAN
- proteolytic activity on chromogenic substrate [4]: inactive as a protease

B4: recombinant human chymase: enzymatically active, recombinant human chymase released by Factor Xa cleavage of the refolded fusion protein (protein)
chain: IIGGTECKPHSRPYMAYLEIVTSNGPSKFCGGFLIRRNFVLTAAHCAGRSITVTLGAHNITEEEDTWQKLEVIKQFRHPKYNTSTLHHDIMLLKLKEKASLTLAVGTLPFPSQFNFVPPGRMCRVAGWGRTGVLKPGSDTLQEVKLRLMDPQACSHFRDFDHNLQLCVGNPRKTKSAFKGDSGGPLLCAGVAQGIVSYGRSDAKPPAVFTRISHYRPWINQILQAN
- enzymatic activity of released recombinant human chymase ([4]; refolded fusion protein cleaved by Factor Xa, hydrolysis of the chymase substrate): enzymatically active
- activity released by Factor Xa ([4]; at 2 hours): 2.7 µg/mL
- activity released by Factor Xa ([4]; at 5 hours, remained at this level for up to 24 hours): 4.6 µg/mL

B5: MBP-chymase: catalytic domain of human mast cell chymase fused to the maltose binding protein of Escherichia coli, wild type chymase amino acid sequence (protein)
chain: IEGRIIGGTECKPHSRPYMAYLEIVTSNGPSKFCGGFLIRRNFVLTAAHCAGRSITVTLGAHNITEEEDTWQKLEVIKQFRHPKYNTSTLHHDIMLLKLKEKASLTLAVGTLPFPSQFNFVPPGRMCRVAGWGRTGVLKPGSDTLQEVKLRLMDPQACSHFRDFDHNLQLCVGNPRKTKSAFKGDSGGPLLCAGVAQGIVSYGRSDAKPPAVFTRISHYRPWINQILQAN
- enzymatic activity on the chymase substrate (control experiments) ([4]; Factor Xa alone, or fusion protein in the absence of Factor Xa): did not result in detectable enzymatic activity
- proteolytic activity on chromogenic substrate [4]: no detectable proteolytic activity
